Data published in PMC8427195, “Dehydrogenation Mechanism of Three Stereoisomers of Butane-2,3-Diol in Pseudomonas putida KT2440” (Frontiers in Bioengineering and Biotechnology, 2021).

B1: R,R-BDH (PP0552), (2R,3R)-2,3-BDO dehydrogenase (Pseudomonas putida KT2440) (protein)
chain: MNDLSHTHMRAAVWHGRHDIRVEQVPLPADPAPGWVQIKVDWCGICGSDLHEYVAGPVFIPVEAPHPLTGIQGQCILGHEFCGHIAKLGEGVEGYAVGDPVAADACQHCGTCYYCTHGLYNICERLAFTGLMNNGAFAELVNVPANLLYRLPQGFPAEAGALIEPLAVGMHAVKKAGSLLGQTVVVVGAGTIGLCTIMCAKAAGAAQVIALEMSSARKAKAKEAGANVVLDPSQCDALAEIRALTAGLGADVSFECIGNKHTAKLAIDTIRKAGKCVLVGIFEEPSEFNFFELVSTEKQVLGALAYNGEFADVIAFIADGRLDIRPLVTGRIGLEQIVELGFEELVNNKEENVKIIVSPGVR

How the values were obtained:
[1] = molecular target: (2R,3R)-2,3-BDO dehydrogenase (PP0552) of Pseudomonas putida KT2440 (Pseudomonas putida KT2440); assay: SEC; Superdex 200 10/300 GL gel filtration; eluent 50 mM sodium phosphate pH 7.2, 150 mM sodium chloride, 0.5 mL min^-1; native molecular weight estimated against standard proteins and compared with the monomer mass
purified protein [2] = substrate: C[C@H](O)[C@@H](C)O; assay: purified protein; details: oxidation with NAD+ (1 mM in general assay), 50 mM Tris-HCl pH 7.4, 30 °C
purified protein [3] = substrate: C[C@@H](O)[C@@H](C)O; assay: purified protein; details: oxidation with NAD+ (1 mM in general assay), 50 mM Tris-HCl pH 7.4, 30 °C
purified protein [4] = substrate: CC(=O)C(C)O; assay: purified protein; type: biochemical, Pseudomonas putida; details: reduction with NADH (0.2 mM in general assay), pH 7.4, 30 °C, apparent Km
purified protein [5] = substrate: NC(=O)c1ccc[n+]([C@@H]2O[C@H](COP(=O)(O)OP(=O)(O)OC[C@H]3O[C@@H](n4cnc5c(N)ncnc54)[C@H](O)[C@@H]3O)[C@@H](O)[C@H]2O)c1; assay: purified protein; type: biochemical, Pseudomonas putida; details: oxidative direction, diol co-substrate not stated (10 mM in general assay), pH 7.4, 30 °C, varied: cofactor
purified protein [6] = substrate: NC(=O)C1=CN([C@@H]2O[C@H](COP(=O)(O)OP(=O)(O)OC[C@H]3O[C@@H](n4cnc5c(N)ncnc54)[C@H](O)[C@@H]3O)[C@@H](O)[C@H]2O)C=CC1; assay: purified protein; type: biochemical, Pseudomonas putida; details: reductive direction, pH 7.4, 30 °C, apparent Km, varied: cofactor

| Molecule | stoichiometry N [1] | Km (purified protein [2]) | kcat (purified protein [2]) | kcat/Km (purified protein [2]) | Km (purified protein [3]) | kcat (purified protein [3]) | kcat/Km (purified protein [3]) | Km (purified protein [4]) | kcat (purified protein [4]) | kcat/Km (purified protein [4]) | Km (purified protein [5]) | kcat (purified protein [5]) | kcat/Km (purified protein [5]) | Km (purified protein [6]) | kcat (purified protein [6]) | kcat/Km (purified protein [6]) |
| --- | --- | --- | --- | --- | --- | --- | --- | --- | --- | --- | --- | --- | --- | --- | --- | --- |
| (2R,3R)-2,3-BDO dehydrogenase (PP0552) of Pseudomonas putida KT2440 (enzyme) | 4 | – | – | – | – | – | – | – | – | – | – | – | – | – | – | – |
| B1 | – | 251 ± 22 µM | 21.1 s⁻¹ | 84300 M⁻¹ s⁻¹ | 155 ± 16 µM | 23.9 s⁻¹ | 154000 M⁻¹ s⁻¹ | 101 ± 5 µM | 34.34 ± 0.256 s⁻¹ | 341000 ± 16900 M⁻¹ s⁻¹ | 825 ± 96 µM | 52.8 ± 3.8 s⁻¹ | 64300 ± 3120 M⁻¹ s⁻¹ | 119 ± 22 µM | 53.3 ± 5.16 s⁻¹ | 454000 ± 36600 M⁻¹ s⁻¹ |
